According to patent US20220154156A1, “PROTEINS AND METHODS FOR DISRUPTING BACTERIAL COMMUNICATION” (REGENTS OF THE UNIVERSITY OF MINNESOTA, priority 2019, published 2022):
Numbered stars: 1 amine (or outer) side, 2 acyl side, 3 side chain; on linkers, the order of the positions; unused ones are H or OH. Bridge positions count the residues as written; N and C are the ends. Square brackets hold non-standard residues; d marks the D form. Peptide text beside a SMILES is read from it. X1 = CC(C)CCCCCCCCC[C@H](CC(=O)[*:1])O[*:2]

B1: SsoPox 19: SsoPox variant with 19 node 55 mutations, SEQ ID NO:13 (protein)
chain: MKIPLVGKDEIEPREMGFTLIHEHLRVFSEAVRQQWPHLYNEDEEFRNAVNEVKTAMSYGVKTIVDPTVMGLGRDIRFMEKVVKATGINVIAATGIYIYTDLPFYFNNRSIDEIADLFIHDIKEGIQGTNNKAGFVKVAADEPGITKDVEKVIRAAAIAHKETKVPIITHSNAHNNTGLEQQRILMEEGVDPGKILIGHLGDTDNIDYIKKIADKGSFIGLDRYGLDLFLPVDKRNETTLKLIKDGYSDKIMISHDYCCTIDWGTAKPEYKPKLAPRWSITLIFEDTIPFLKRNGVNEEVIATIFKENPKKFFS
modifications: SsoPox19 variant
B2: SsoPox 6: SsoPox variant R2K/S10E/S13P/K14R/V91I/L107N, SEQ ID NO:12 (protein)
chain: MKIPLVGKDEIEPRDIGFTLIHEHLRVFSEAVRQQWPHLYNEDEEFRNAVNEVKRAMQFGVKTIVDPTVMGLGRDIRFMEKVVKATGINLIAGTGIYIYIDLPFYFNNRSIDEIADLFIHDIKEGIQGTLNKAGFVKIAADEPGITKDVEKVIRAAAIANKETKVPIITHSNAHNNTGLEQQRILTEEGVDPGKILIGHLGDTDNIDYIKKIADKGSFIGLDRYGLDLFLPVDKRNETTLRLIKDGYSDKIMISHDYCCTIDWGTAKPEYKPKLAPRWSITLIFEDTIPFLKRNGVNEEVIATIFKENPKKFFS
modifications: SsoPox6 variant
B3: SsoPox: lactonase isolated from Sulfolobus solfataricus, SEQ ID NO:5 (protein, listed as Sulfolobus solfataricus)
chain: GMVRISIAGGNEIDPGSMGLTLFHEHLRLITEVVRWNWPHLYNEDEELKRAIDAVNAAKKYGVKTIIDLTVAGIGCDVRFNEKVAKATGVNIIMGTGFYTYTEIPFYFKNRGIDSLVDAFVHDITIGIQGTNTRAAFVKAVIDSSGLTKDVEMAIRAAAKAHIKTDVPIITHSFVGNKSSLDLIRIFKEEGVDLARTVIGHVGDTDDISFIEQILREGAFIGLDRFGLDIYLPLDKRVKTAIELIKRGWIDQLLLSHDYCPTIDWYPPEVVRSTVPDWTMTLIFEKVIPRMRSEGITEEQINRVLIDNPRRLFTGR

Key:
[1] = system: corrosion tubercles on steel coupons; assay: Biocorrosion of coated steel coupons in Duluth-Superior Harbor water, 8 weeks; parameters: concentration or dose not given beside the values; settings: silica gel coating, two months in DSH water
Description: The steel coupons were washed with soap water, lightly brushed for a few seconds with a test tube brush, and then rinsed with Milli-Q water to remove any loose material. Each coupon was designated with a unique number and weighed before being randomly assigned to a specific experimental treatment.
Each compound or enzyme was added to 5 ml of the silica gel matrix to develop different coating treatments. These coatings were applied by dipping coupons into the appropriate gel mixture for 1 minute, and then the coating on the coupon surface was air-dried at room temperature for 2 hours.
Six treatments and three controls were investigated for corrosion rate and changes in bacterial communities (Table 10). Each treatment or control contained three replicate steel coupons. After the triplicate steel coupons were coated with each biochemical, enzyme or bacterial treatment, they were incubated in experimental microcosms constructed from 10-gallon glass aquaria (Aqueon Glass, 50.8 cm×25.4 cm×30.5 cm) (FIG. 24). Each microcosm was equipped with an aquarium pump (Aquarium Systems Mini-Jet 404) to constantly circulate the water (˜2 L hr−1), and covered with a piece of acrylic with one corner cut out to allow gas exchange. The coupons were hold with plastic holders and immersed in water taken from the DSH for 8 weeks and then recovered for analyses.
The coupons in each treatment was photographed by the end of the experiment. Biocorrosion was evaluated by the number and coverage of corrosion tubercles, and also by imaging of coupon surfaces with an environmental scanning electron microscope (ESEM). The coupon images were captured with DSLR camera immediately after being removed from the harbor water, and then tubercle numbers and total area in digital images were measured using the analyze menu within ImageJ software (NIH, Bethesda, Md., USA). Surface roughness measurements were also made after the exposed coupons were cleaned with ASTM G1-90 iron and steel chemical cleaning procedure (2 min in 37% HCl, 50 g/L SnCl2). A Hitachi TM-3030 ESEM was used to view details of the cleaned coupon surface and the 3D-View software was used to generate surface roughness measurements (SRa). Statistics analysis (T-tests) of the tubercle numbers, coverage and surface roughness were performed using Microsoft Excel software.

[2] = system: bacterial communities at the surface of the steel; assay: 16S rDNA analysis of microbial community on steel coupons; settings: treated coupons
Description: After photo imaging, on each of the coupon surface, all material including biofilm and tubercles were scraped into a sterile 50 ml polypropylene centrifuge tube (Corning, N.Y., USA) using a steel scraper. A 0.5 g subsample of the surface material from each coupon sample was used for DNA extraction using PowerSoil DNA kit (MoBio Laboratories). The extracted DNA was used to sequence the V4 region of 16S rDNA gene and describe changes in the composition of bacterial communities. DNA samples were quantified with a NanoDrop 2000 Spectrophotometer (Thermo Scientific, Waltham, Mass. USA) and then sent overnight to the University of Minnesota Genomics Center for 16S rDNA sequencing. 30 samples were multiplexed into a single run of Illumina MiSeq paired-end 300 cycles, which was expected to generate a total of 15 million sequences of the 254 bp portions of the 16S rDNA V4 region.
Sequence data were processed and analyzed using the MOTHUR program. To ensure high quality data for analysis, sequence reads containing ambiguous bases, homopolymers >7 bp, more than one mismatch in the primer sequence, or an average per base quality score below 25 were removed. Sequences that only appear once in the total set were assumed to be a result of sequencing error and removed from the analysis. Chimeric sequences were also removed using the UCHIME algorithm within the MOTHUR program. […]

[3] = molecular target: GcL, quorum quenching lactonase from Geobacillus caldoxylosilyticus (Parageobacillus caldoxylosilyticus) (Geobacillus caldoxylosilyticus (Parageobacillus caldoxylosilyticus)); assay: X-ray crystal structure, homodimer interface analysis
[4] = Enzymatic characterization of SsoPox 6 and SsoPox 19; assay type: biochemical; settings: esters, lactones and phosphotriesters; compared with wt
Description: We determined the ability of these two variants to hydrolyze a wide range of substrates, including esters, lactones and phosphotriesters (FIG. 23).

[5] = Paraoxonase activity of SsoPox variants after incubation at 80° C.; assay type: physicochemical; settings: compared with wt enzyme and SsoPox W263I
Pseudomonas aeruginosa = assay: Caenorhabditis elegans infection models (slow-killing, paralysis); assay type: in vivo; settings: dose-dependent
Description: FIG. 34A-34C show protection of Caenorhabditis elegans from infection by Pseudomonas aeruginosa by lactonases. Slow-killing, gut infection assay performed with P. aeruginosa. Lactonases SsoPox (A) and GcL (B) are sprayed in the petri dish plate, and final concentrations are given. (C) Paralysis assay by P. aeruginosa, and treatment with SsoPox. […] OP50 Escherichia coli strain serves as a non-virulent control.
The protection by lactonases is dose-dependent (FIG. 34) in both models.

algae and Zebra mussels = assay: Antifouling activity of acrylic-lactonase coating, Lake Minnetonka, 1 month; settings: 200 μg/mL, polycarbonate, controls BSA, copper oxide
Description: Various polycarbonate samples were submerged in Lake Minnetonka (Tonka bay marina) for 1 month. Coatings were prepared with 200 μg/mL of control ingredients (BSA or copper oxide (CuO)) and of lactonases (SsoPox and GcL). Large zebra mussels are circled.
We note that microscopy imaging highlights large differences in the surface colonization between the different treatments.

| Molecule | reduction of the number (formation) of corrosion tubercles [1] | activity levels [4] | paraoxon hydrolysis after incubation of different times at 80° C. [5] | further results |
| --- | --- | --- | --- | --- |
| [Mg+2].[O-][O-] [magnesium peroxide] | 36% |  |  |  |
| CC(C)CCCCCCCCC[C@@H]1CC(=O)N[C@@H](CCC(=O)O)C(=O)N[C@@H](CC(C)C)C(=O)N[C@H](CC(C)C)C(=O)N[C@@H](C(C)C)C(=O)N[C@@H](CC(=O)O)C(=O)N[C@H](CC(C)C)C(=O)N[C@@H](CC(C)C)C(=O)O1 [surfactin] (EL[dL]VD[dL]L; linker N-C via X1) | 31% |  |  | abundance of Burkholderiales, Pseudomonadales and Rhodospirillales [2]: significantly reduced; reduction of the coverage of corrosion tubercles [1]: 37% |
| GcL, quorum quenching lactonase from Geobacillus caldoxylosilyticus (Parageobacillus caldoxylosilyticus) (from UniProt A3FJ64 1-250) (enzyme) |  |  |  | interface surface between dimer [3]: 1180 Å^2 |
| B1 |  | extremely similar to those of the wt enzyme | withstanding better the incubation at 80 °C than the wt enzyme and SsoPox W263I |  |
| B2 |  | extremely similar to those of the wt enzyme | withstanding better the incubation at 80 °C than the wt enzyme and SsoPox W263I |  |
| B3 |  |  |  | survival of Caenorhabditis elegans (Pseudomonas aeruginosa): increase survival; inhibition of biofouling (algae and Zebra mussels): more efficient at inhibiting biofouling than controls |
